The results in this text go back to the DeepSol protein solubility set.

The nature of the series: soluble on expression in E. coli; label from the status in PepcDB or PDB records.
Consider “MARFTDKVAIITGSSNGIGRATAVLLATDGAKVTITGRDAARLEETRQAILKAGISATNVNSVVADVTTAEGQDLLISSTLDKFGKINILINNAGANIPDSQGQTRTKCSIENLTKMFQLNLQSVVEMVQKVRPHLAKTRGEIVNISSIGAGPAAQPASPYYSSAKAALDQYSRCAAIDLISEGIRINVVQPGFVSTGFSTAARGLSADESVKFYDLMGSLPHCIPAGYCGQPDHLASVIAFLVDRKVSEYIVGQTIIADGGSSLVIGCHAPRQ”, for which the “soluble on expression in E. coli” value is “not soluble”.
For “MARGCDLCFPGRKAVVFVTGLCDDSCFYCPVSRAKLGRDVFYVNEVPVASVEEAVAEVLRTGASGASLTGGDPLVALHRTLDVARALKSELGRGFHIHLYTSGRRMTPEVARALWEAGVDEVRIHPTERSLLSRVGMVKRYTGMSVGVEMPIAPGLEELAIEAVKTVEAVGGDFVNLNEMEIVEPNARALLARGYTESGERPFTVRGALEAVLRVLEWAAENSSVPVHFCPASFKDSIQTGNRLRSSAARDAYWYEEPTPHGTLTWGEVRGGSPPPGLGEERGGRIMLPPRADLLETVVRMYGGEAYIVEAHPTPSRTPIVSERRIA” the value was “not soluble”; for “MARKRRAARVKDKWTLKKWFTLIAPEYFGMAELGETPADDASKVVGRTVETTLAELTNDYSNQNTYKKLIFKVYRVAGDNAYTKFWRFELTREYLNSLTRRRTSKIEDIVDVTTADGYKLRVKSVVFTVRRCKTSQKRAIRAIMRQIVVEKASSLNFVQFLQECVLGKVPAEIYKNAKKIYPIRRVEIRKIELLAEPAEAETQPAVAEAVALEHHHHHH”, “soluble”; for “MARLNITFSPQAFEDYKYFQQNDKKMVKKINELLKSIDRNGALEGIGKPEKLKSNLTGYYSRRINHEHRLVYTVDDNHIKIASCKYHY”, “not soluble”.
As for “MARVAIVGTGPTGIYTFFNLIQTDPSHHITLFERGEKAGIGLPYSPEAASKSMLANIASIEIPPIEATYLDWLKGQPDAKLRAYGLDRAELDDRQFTPRLLLGEYFRDQLLSLLDRHRARTEVLETTEVTDVIARNDALFLRAAEREFGPFDRVILATGHVFPDADEATRSYFPSPWSGLIQAEVPPVSVGIMGTSLSSIDAAMAVANQHGRFRRHGEELTFEPATEGLHLTLMSWSGVLPEADFWCPIPYEPLQVMTDDAVAQCAAQADPLDRVFALLQEEIAQADPAYADRIGLATLTADTFGDAYFAAREAQDPFRWARRNLEEVEHNKAHQITVPWRYALLRMHEKVETLVPHLGDADRKRFDGGLKKVFVDNYAAVPSESIRRLLALRDAGLLSVLALGEDYELKREPDRTVIHAKGKTHVFPVFIDARGQKPMESRDMPFPSLRRALMGSKQDIPELDADFALVGVPDYDRHAHLAAIPYLMHDRPFVQGITASAEIGATIARGISQAVGDRAAQGGRRSSAPVVATGLEHHHHHH”, the “soluble on expression in E. coli” value is reported as “soluble”.
Under “MASAQPLTALPAIPLPGDAGPVDELAAVIALLQTQPADSTGAATDLAARASALVGAPVTVLDERSGVLAGDPTRVAGQVAAPDGSVALGWGPAADDAERWRPLLTQACVWLSMIRRLDGAPAVEPESVAVREVVQQLLSVRDVDQVLTSIAERTLRLLDADICGVMLREGERVCMRACVGNRVAQTARLRMRRGQGLAGLVFDIGRPAKVDTYLEDRTISPDFMSLAEQEETRSALAVPLRLHGELIGVLEVWRRRPSTFTEHDEHRMVVLADIATVAIDNARLHDEQAASTVEAERARDELQQQVAMLNGSSRLQQKLLTTVIEGGGLPAVVHAVAIELGCEVGVFGPDGAMIATHTPGSTPASLPARLPVRARPATPGRWVRPVYADGDQVGQVVLIQGEASAELMDAVAGQVAMACSLALLRERAASRARAQAVDQVLWDLLQGPVQHRVAARSRAQQLGISLLGSLRVLHGQIENVEELAAEQGWDTSHTDKVRRGVLRAVRGVDEARRLPLTGMRGDLLVAVAADLDRASVKDLAAATCAAIHAEWPGLRLTWGVSRERANPMELPNALSEAETALAAARRLGGRNALLYEELGIVRLLLGSGNDPDLQTFIEEVTGPLIAYDRDNDGALIRTLRAFFDADCSQRVAAERLFVHHKTLRYRLERIRQLTGLDLSRHEDRMRADFALRLLQVNQTSDAIGD” stands “not soluble”; under “MASDENIGADGEQKPSRPFLRKGQGTARFRMPRNNKTSAGAPPTSELSSASSPSINVPRFSLSNALPNSARTVDSGISNEDETRPPTTASLPMDQPSLSSSPENRLNPAPSVAEEHGHSGQHAEEEEDNDTDEVSAMPSFVPDEPSTLVNSDHELSDDALKYKNAAAEFKAFERRMDSMRSASTITTSLATPSSCAPSNSSEPPTRSTPIMNDLGVGPNNHNWPSSMQELSGISLETPQARPLGSNRINQLVRSEAQTGISLLQHHERPTVTAPLRRNDMMNSSRQNPQNGNVQDENRPEHVYDQPIHVPGSSLDRQKLEIEIRRHRNLNIQLRDTIAHLDYAEESVHTTKRQLEEKISEVNNFKKELIEEFKKCKKGVEEEFEKKFEKIKEDYDELYEKLKRDQRDLERDQKILKKGTGERNKEFTETIATLRDKLRASETKNAQYRQDIRVRDEKLKKKDEEIEKLQKDGNRLKSTLQTLEKRVKQLRTEKERDDKEKEMFAKVAMNRKTSNPVPPVLNQSVPISITSNGPSRHPSSSSLTTFRKPSTSNRERGVSWADEPNEQSLEAVPQEFLMMPVKEMPGKFGKCTIYRDSLGETSKVTDTIANGLLFEYSNGDLRWVNRQNAVNIYISAVDKTVRIDLPTYNISIIHTFQRQVEVLRPGNNITLISIKRREVRTDLIYQNGMYKTEIFNRDGRYVTKDFSNQEVSRKYNPGTHTYRDNQCRYVLVTDYNDFELVEPEFRLRWYQGDPTGLNNQYILKIIGRPECSEKTLRLEVNLSTCEGTLETAEMIGDKRRKTTLFQWKK”, “not soluble”.
As to “MASDYEAVNTNPYGVSDGELGPLKYGARFMNMQQRVIPIGSPSLTTGPGNDLQNTDLISSGNYIGYFGNNNNWGFNNEANWNFTDSRMNYAYQNFYSQIFLPWNEIYEIAKDSDSPSEQAILEIANIVRNIAWLRATDVFGPIAYNSAGDGSIAPKFDSQEVVYRSMLADLSKSVELLNTISYSVMAQYDLIYNGNVQNWVKLANSLMLRIVVRVHFIDETLAKEYITKALDPKNGGVIEDISSEAKIKSSDKMPLLNSMLASVNEYNETRMGATIWGYLDGYKDPRLSAYFTEGTYGSGSWAQTGYFPVAPTNSKSKSETSYSAKFASRPKVDSNSPLYWFRASETYFLKAEAALYNLIGGDPKTFYEQGINISFQEQGVSGVATYLSGTGKPTGLTGSNYKYGTYNHDLSIGNTSPKWDDYTGNLSKQEEQLQKIITQKYLALYPNAVEAWTEYRRTGFPYLMKPMDEAAPGRIGASIEDCRVPERFRFAPTAYNSNPNMAEIPTLLGGGDIGATKLWWVRSNRPKQPNQ”, the “soluble on expression in E. coli” value is reported as “soluble”.
As for “MASEVRIKLLLECTECKRRNYATEKNKRNTPNKLELRKYCPWCRKHTVHREVKI”, the “soluble on expression in E. coli” value is reported as “soluble”.
For “MASGIRCFRLLHPAFRSYHAALTRPVSEVSMKTVSGRQHGHRQYSAYPAVPVRHFATKKAKAKGKGQPQARVTVNRALVEDIISLEEVDEDMKSVVEALKDNFNKTLNIRTAPGSLDHITVVTADGKVALNQIGQISMKSPQVILVNMASFPECTAAAIKAIRESGMNLNPEVEGTLIRVPIPKVTREHREMLVKLAKQNTNKAKENLRKVRTNAMNKLKKSKDKTSEDTIRLIEKQISQMADDTVAELDQHLAAKTKELLG” the value was “soluble”; for “MASIWVGHRGTVRDYPDFSPSVDAEAIQKAIRGIGTDEKMLISILTERSNAQRQLIVKEYQAAYGKELKDDLKGDLSGHFEHLMVALVTPPAVFDAKQLKKSMKGAGTNEDALIEILTTRTSRQMKDISQAYYTVYKKSLGDDISSETSGDFRKALLTLADGRRDESLKVDEHLAKQDAQILYKAGENRWGTDEDKFTEILCLRSFPQLKLTFDEYRNISQKDIVDSIKGELSGHFEDLLLAIVNCVRNTPAFLAERLHRALKGIGTDEFTLNRIMVSRSEIDLLDIRTEFKKHYGYSLYSAIKSDTSGDYEITLLKICGGDD”, “soluble”.
Under “MASKHAAKTVDPKDLSPAWKVLQMKLNEEKAEKEKAAKAEKEANPEGSDDGFTKVQTKKQKQKMNRKRRAQEALAAASEVKRVHHDIPVVIEDSERGELTKVIAIDCEYVGAGMGGTTDILARISIVNELGKIVYDKFVKPTEKVTDFRTAVSGIRPENMIKAIPFDRAQTEVSKLIDGRIVIGHAVHNDFRVLKLNHIRKLTRDTAKCTILKNMANHHGTPSLKKLAKEVLGIEIQRGEHDSITDARVALRLYEAVKKQWEAEIKRYR” stands “not soluble”.
